{"source": "patent US20090099029A1", "about": "“Methods and substrates for conducting assays” (Invitrogen Corporation, priority 2005, published 2009)", "molecules": {"B1": {"name": "DAPK3(ZIPK) (protein)", "chain": "MSTFRQEDVEDHYEMGEELGSGQFAIVRKCRQKGTGKEYAAKFIKKRRLSSSRRGVSREEIEREVNILREIRHPNIITLHDIFENKTDVVLILELVSGGELFDFLAEKESLTEDEATQFLKQILDGVHYLHSKRIAHFDLKPENIMLLDKNVPNPRIKLIDFGIAHKIEAGNEFKNIFGTPEFVAPEIVNYEPLGLEADMWSIGVITYILLSGASPFLGETKQETLTNISAVNYDFDEEYFSNTSELAKDFIRRLLVKDPKRRMTIAQSLEHSWIKAIRRRNVRGEDSGRKPERRRLKTTRLKEYTIKSHSSLPPNNSYADFERFSKVLEEAAAAEEGLRELQRSRRLCHEDVEALAAIYEEKEAWYREESDSLGQDLRRLRQELLKTEALKRQAQEEAKGALLGTSGLKRRFSRLENRYEALAKQVASEMRFVQDLVRALEQEKLQGVECGLR", "modifications": "left off: a dimerising Fc or GST"}, "B2": {"name": "DMPK (protein)", "chain": "MSAEVRLRRLQQLVLDPGFLGLEPLLDLLLGVHQELGASELAQDKYVADFLQWAEPIVVRLKEVRLQRDDFEILKVIGRGAFSEVAVVKMKQTGQVYAMKIMNKWDMLKRGEVSCFREERDVLVNGDRRWITQLHFAFQDENYLYLVMEYYVGGDLLTLLSKFGERIPAEMARFYLAEIVMAIDSVHRLGYVHRDIKPDNILLDRCGHIRLADFGSCLKLRADGTVRSLVAVGTPDYLSPEILQAVGGGPGTGSYGPECDWWALGVFAYEMFYGQTPFYADSTAETYGKIVHYKEHLSLPLVDEGVPEEARDFIQRLLCPPETRLGRGGAGDFRTHPFFFGLDWDGLRDSVPPFTPDFEGATDTCNFDLVEDGLTAMVSGGGETLSDIREGAPLGVHLPFVGYSYSCMALRDSEVPGPTPMELEAEQLLEPHVQAPSLEPSVSPQDETAEVAVPAAVPAAEAEAEVTLRELQEALEEEVLTRQSLSREMEAIRTDNQNFASQLREAEARNRDLEAHVRQLQERMELLQAEGATAVTGVPSPRATDPPSHLDGPPAVAVGQCPLVGPGPMHRRHLLLPARVPRPGLSEALSLLLFAVVLSRAAALGCIGLVAHAGQLTAVWRRPGAARAP", "modifications": "left off: a dimerising Fc or GST"}, "B3": {"name": "EPHA1 (protein)", "chain": "RSRRAQRQRQQRQRDRATDVDREDKLWLKPYVDLQAYEDPAQGALDFTRELDPAWLMVDTVIGEGEFGEVYRGTLRLPSQDCKTVAIKTLKDTSPGGQWWNFLREATIMGQFSHPHILHLEGVVTKRKPIMIITEFMENGALDAFLREREDQLVPGQLVAMLQGIASGMNYLSNHNYVHRDLAARNILVNQNLCCKVSDFGLTRLLDDFDGTYETQGGKIPIRWTAPEAIAHRIFTTASDVWSFGIVMWEVLSFGDKPYGEMSNQEVMKSIEDGYRLPPPVDCPAPLYELMKNCWAYDRARRPHFQKLQAHLEQLLANPHSLRTIANFDPRMTLRLPSLSGSDGIPYRTVSEWLESIRMKRYILHFHSAGLDTMECVLELTAEDLTQMGITLPGHQKRILCSIQGFKD", "modifications": "left off: a dimerising Fc or GST"}, "B4": {"name": "CSNK2A2 (protein)", "chain": "MPGPAAGSRARVYAEVNSLRSREYWDYEAHVPSWGNQDDYQLVRKLGRGKYSEVFEAINITNNERVVVKILKPVKKKKIKREVKILENLRGGTNIIKLIDTVKDPVSKTPALVFEYINNTDFKQLYQILTDFDIRFYMYELLKALDYCHSKGIMHRDVKPHNVMIDHQQKKLRLIDWGLAEFYHPAQEYNVRVASRYFKGPELLVDYQMYDYSLDMWSLGCMLASMIFRREPFFHGQDNYDQLVRIAKVLGTEELYGYLKKYHIDLDPHFNDILGQHSRKRWENFIHSENRHLVSPEALDLLDKLLRYDHQQRLTAKEAMEHPYFYPVVKEQSQPCADNAVLSSGLTAAR", "modifications": "left off: a dimerising Fc or GST"}, "B5": {"name": "DAPK2 (protein)", "chain": "MFQASMRSPNMEPFKQQKVEDFYDIGEELGSGQFAIVKKCREKSTGLEYAAKFIKKRQSRASRRGVSREEIEREVSILRQVLHHNVITLHDVYENRTDVVLILELVSGGELFDFLAQKESLSEEEATSFIKQILDGVNYLHTKKIAHFDLKPENIMLLDKNIPIPHIKLIDFGLAHEIEDGVEFKNIFGTPEFVAPEIVNYEPLGLEADMWSIGVITYILLSGASPFLGDTKQETLANITAVSYDFDEEFFSQTSELAKDFIRKLLVKETRKRLTIQEALRHPWITPVDNQQAMVRRESVVNLENFRKQYVRRRWKLSFSIVSLCNHLTRSLMKKVHLRPDEDLRNCESDTEEDIARRKALHPRRRSSTS", "modifications": "left off: a dimerising Fc or GST"}, "B6": {"name": "EPHA2 (protein)", "chain": "HRRRKNQRARQSPEDVYFSKSEQLKPLKTYVDPHTYEDPNQAVLKFTTEIHPSCVTRQKVIGAGEFGEVYKGMLKTSSGKKEVPVAIKTLKAGYTEKQRVDFLGEAGIMGQFSHHNIIRLEGVISKYKPMMIITEYMENGALDKFLREKDGEFSVLQLVGMLRGIAAGMKYLANMNYVHRDLAARNILVNSNLVCKVSDFGLSRVLEDDPEATYTTSGGKIPIRWTAPEAISYRKFTSASDVWSFGIVMWEVMTYGERPYWELSNHEVMKAINDGFRLPTPMDCPSAIYQLMMQCWQQERARRPKFADIVSILDKLIRAPDSLKTLADFDPRVSIRLPSTSGSEGVPFRTVSEWLESIKMQQYTEHFMAAGYTAIEKVVQMTNDDIKRIGVRLPGHQKRIAYSLLGLKDQVNTVGIPI", "modifications": "left off: a dimerising Fc or GST"}, "B7": {"name": "CSNK1D(CK1delta) (protein)", "chain": "MELRVGNRYRLGRKIGSGSFGDIYLGTDIAAGEEVAIKLECVKTKHPQLHIESKIYKMMQGGVGIPTIRWCGAEGDYNVMVMELLGPSLEDLFNFCSRKFSLKTVLLLADQMISRIEYIHSKNFIHRDVKPDNFLMGLGKKGNLVYIIDFGLAKKYRDARTHQHIPYRENKNLTGTARYASINTHLGIEQSRRDDLESLGYVLMYFNLGSLPWQGLKAATKRQKYERISEKKMSTPIEVLCKGYPSEFATYLNFCRSLRFDDKPDYSYLRQLFRNLFHRQGFSYDYVFDWNMLKFGASRAADDAERERRDREERLRHSRNPATRGLPSTASGRLRGTQEVAPPTPLTPTSHTANTSPRPVSGMERERKVSMRLHRGAPVNISSSDLTGRQDTSRMSTSQNSIPFEHHGK", "modifications": "left off: a dimerising Fc or GST"}, "B8": {"name": "CHEK1 (protein)", "chain": "MAVPFVEDWDLVQTLGEGAYGEVQLAVNRVTEEAVAVKIVDMKRAVDCPENIKKEICINKMLNHENVVKFYGHRREGNIQYLFLEYCSGGELFDRIEPDIGMPEPDAQRFFHQLMAGVVYLHGIGITHRDIKPENLLLDERDNLKISDFGLATVFRYNNRERLLNKMCGTLPYVAPELLKRREFHAEPVDVWSCGIVLTAMLAGELPWDQPSDSCQEYSDWKEKKTYLNPWKKIDSAPLALLHKILVENPSARITIPDIKKDRWYNKPLKKGAKRPRVTSGGVSESPSGFSKHIQSNLDFSPVNSASSEENVKYSSSQPEPRTGLSLWDTSPSYIDKLVQGISFSQPTCPDHMLLNSQLLGTPGSSQNPWQRLVKRMTRFFTKLDADKSYQCLKETCEKLGYQWKKSCMNQVTISTTDRRNNKLIFKVNLLEMDDKILVDFRLSKGDGLEFKRHFLKIKGKLIDIVSSQKIWLPAT", "modifications": "left off: small tags and cut ends"}}, "data": [{"tested_on": "kinases of Table 6 on Myelin Basic Protein (MBP)", "test": "Kinase assay using MBP substrate, ProQ Diamond stain (Table 6)", "type": "biochemical", "conditions": "kinase printed on MBP-coated slide; 20 uM ATP, 30° C.; ProQ Diamond Microarray Stain; graded Strong/Weak/Negative", "description": "In this illustrative example, four-well slides were designed with a hydrophobic mask surrounding 4-wells of aldehyde- or epoxy-coated glass (smooth or ES grade; Erie Scientific (Portsmouth, N.H.)). […] Bovine, dephosphorylated, Myelin Basic Protein (MBP) was purchased from Upstate Biotechnology (#13-110). MBP was diluted to 1 mg/ml in PBS, applied to the slide surface, covered with a coverslip, and left overnight at 4° C. to coat the slide with the MBP. Slides were washed 3 times with water and spun dry before printing.\nKinases were purchased from Panvera (Invitrogen, Carlsbad, Calif.), diluted in printing buffer (50 mM Tris pH 7.5, 25% glyercol, 0.05% TritonX-100, 2 mM DTT) and deposited using a GeneMachine OmniGrid100. Slides were stored at −20° C.\nReactions were performed following removal of the slide from the freezer. Reaction buffer (20 mM HEPES pH 7.5, 4 mM MgCl2, 2 mM DTT, 20 uM ATP, 5% DMSO) was added with or without inhibitor, a coverslip applied, and the slide placed at 30° C. for the appropriate reaction time. The slide was washed with water to stop the reaction (3 times) and spun dry. ProQ Diamond Microarray Stain (Invitrogen #P33706) was applied, covered with a coverslip, and the slide was incubated in the dark at room temperature for 30 minutes. The slide was destained and washed three times with water, and spun dry.", "values": [{"molecule": "B1", "MBP Kinase Activity": "Negative"}, {"molecule": "B2", "MBP Kinase Activity": "Negative"}, {"molecule": "B3", "MBP Kinase Activity": "Strong"}, {"molecule": "B4", "MBP Kinase Activity": "Negative"}, {"molecule": "B5", "MBP Kinase Activity": "Negative"}, {"molecule": "B6", "MBP Kinase Activity": "Weak"}, {"molecule": "B7", "MBP Kinase Activity": "Negative"}, {"molecule": "B8", "MBP Kinase Activity": "Strong"}]}]}
